The record followed here is the supplement of paper PMC6379048.

By EC50 is commonly meant the concentration that produces a half-maximal response. A lower EC50 goes with greater potency.

Experiment in all cases: EC50 of free RNA motif oligo competing protein binding to immobilised probe
In one data set the target is T1, MCM4 (UniProt P33991).
T1 sequence: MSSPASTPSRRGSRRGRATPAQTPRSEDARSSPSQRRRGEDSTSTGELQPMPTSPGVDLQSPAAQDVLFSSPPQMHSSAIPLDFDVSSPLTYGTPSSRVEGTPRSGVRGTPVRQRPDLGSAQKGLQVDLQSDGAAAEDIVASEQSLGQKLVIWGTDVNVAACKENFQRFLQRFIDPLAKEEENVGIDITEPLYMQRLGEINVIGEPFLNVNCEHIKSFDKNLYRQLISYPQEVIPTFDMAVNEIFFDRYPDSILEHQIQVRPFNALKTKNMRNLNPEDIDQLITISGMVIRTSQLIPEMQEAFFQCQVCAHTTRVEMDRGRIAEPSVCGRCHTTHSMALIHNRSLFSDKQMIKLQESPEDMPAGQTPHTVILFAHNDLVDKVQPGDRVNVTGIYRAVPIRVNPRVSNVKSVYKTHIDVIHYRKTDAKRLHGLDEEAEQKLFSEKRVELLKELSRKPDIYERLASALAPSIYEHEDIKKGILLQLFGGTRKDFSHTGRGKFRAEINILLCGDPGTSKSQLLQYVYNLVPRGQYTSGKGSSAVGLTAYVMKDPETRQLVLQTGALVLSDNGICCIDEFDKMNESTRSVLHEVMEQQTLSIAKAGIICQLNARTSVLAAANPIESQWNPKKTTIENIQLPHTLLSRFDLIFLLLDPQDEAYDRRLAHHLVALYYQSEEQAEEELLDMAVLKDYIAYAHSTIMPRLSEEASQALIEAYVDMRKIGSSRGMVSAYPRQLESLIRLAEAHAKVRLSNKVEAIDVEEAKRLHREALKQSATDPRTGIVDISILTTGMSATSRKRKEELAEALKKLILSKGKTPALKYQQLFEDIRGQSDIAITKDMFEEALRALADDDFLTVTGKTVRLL
A digest of the protocol:
(§1)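 To obtain EC50, data were fitted with a four-parameter log-logistic model; Kd was then EC50 multiplied by a protein-dependent depletion factor. Beforehand, free RNA oligos (0 nM to 30 μM) were pre-incubated with HEK293-FT lysate (2.5 mg protein/well) for 1 h at 4°C. The lysate then spent 30 min at 4°C with the same 5′-amino-C6 oligos coupled to NHS-Sepharose beads, and bound proteins were quantified by label-free LC-MS/MS, normalised to the control.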

For a further data set, the target named is T2, MKRN2 (UniProt Q9H000).
T2 sequence: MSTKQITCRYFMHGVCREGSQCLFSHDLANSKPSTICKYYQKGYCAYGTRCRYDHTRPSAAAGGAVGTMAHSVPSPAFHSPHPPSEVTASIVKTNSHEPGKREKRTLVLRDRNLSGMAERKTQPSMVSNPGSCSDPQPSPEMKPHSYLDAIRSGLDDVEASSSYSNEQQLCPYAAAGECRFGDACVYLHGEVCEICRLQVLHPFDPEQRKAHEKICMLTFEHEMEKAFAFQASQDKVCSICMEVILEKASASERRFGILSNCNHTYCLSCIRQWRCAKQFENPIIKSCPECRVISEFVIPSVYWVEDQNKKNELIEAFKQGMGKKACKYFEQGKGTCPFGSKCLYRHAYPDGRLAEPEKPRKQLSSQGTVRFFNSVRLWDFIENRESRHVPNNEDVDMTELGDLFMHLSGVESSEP
A digest of the protocol:
as §1

In a further data set the target is T3, SYMPK (UniProt Q92797).
T3 sequence: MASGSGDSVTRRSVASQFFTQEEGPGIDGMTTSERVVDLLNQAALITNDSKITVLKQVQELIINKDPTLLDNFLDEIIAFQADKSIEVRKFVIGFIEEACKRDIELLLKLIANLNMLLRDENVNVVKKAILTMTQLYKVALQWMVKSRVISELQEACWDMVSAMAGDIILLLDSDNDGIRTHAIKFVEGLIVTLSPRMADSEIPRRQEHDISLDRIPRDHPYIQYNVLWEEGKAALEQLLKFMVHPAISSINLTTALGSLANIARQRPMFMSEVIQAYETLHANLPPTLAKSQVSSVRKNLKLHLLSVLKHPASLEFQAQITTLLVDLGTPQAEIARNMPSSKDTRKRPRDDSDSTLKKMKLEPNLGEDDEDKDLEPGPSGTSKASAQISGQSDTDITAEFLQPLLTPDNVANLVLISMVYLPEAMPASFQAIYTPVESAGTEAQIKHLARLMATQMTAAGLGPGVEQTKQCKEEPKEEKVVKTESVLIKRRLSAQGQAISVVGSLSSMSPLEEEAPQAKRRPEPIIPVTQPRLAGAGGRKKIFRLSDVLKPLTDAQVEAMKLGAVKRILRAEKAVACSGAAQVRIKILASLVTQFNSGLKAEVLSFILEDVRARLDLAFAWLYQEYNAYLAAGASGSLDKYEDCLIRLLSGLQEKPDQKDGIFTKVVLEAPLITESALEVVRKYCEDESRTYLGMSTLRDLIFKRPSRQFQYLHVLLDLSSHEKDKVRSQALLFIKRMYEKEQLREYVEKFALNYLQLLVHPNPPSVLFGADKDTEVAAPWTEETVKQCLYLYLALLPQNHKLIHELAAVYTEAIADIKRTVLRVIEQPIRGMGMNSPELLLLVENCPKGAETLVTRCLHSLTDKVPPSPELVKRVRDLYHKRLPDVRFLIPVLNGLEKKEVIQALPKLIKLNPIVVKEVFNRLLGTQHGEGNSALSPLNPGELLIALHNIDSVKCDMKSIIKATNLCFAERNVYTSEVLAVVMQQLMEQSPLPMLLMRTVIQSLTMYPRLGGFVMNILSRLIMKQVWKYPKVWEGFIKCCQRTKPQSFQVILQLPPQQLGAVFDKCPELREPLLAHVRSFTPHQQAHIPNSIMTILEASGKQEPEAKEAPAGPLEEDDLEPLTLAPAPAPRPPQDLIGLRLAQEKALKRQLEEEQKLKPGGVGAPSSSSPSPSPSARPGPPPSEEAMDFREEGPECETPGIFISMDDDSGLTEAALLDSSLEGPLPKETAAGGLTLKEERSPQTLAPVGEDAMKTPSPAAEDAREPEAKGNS
The gist of the method: as §1

In another data set the target is MRPL21 (UniProt Q7Z2W9). The gist of the method: as §1
For the next data set, the target named is PPIE (UniProt Q9UNP9). The gist of the method:
as §1

Chain of PPIE (Q9UNP9 whole entry): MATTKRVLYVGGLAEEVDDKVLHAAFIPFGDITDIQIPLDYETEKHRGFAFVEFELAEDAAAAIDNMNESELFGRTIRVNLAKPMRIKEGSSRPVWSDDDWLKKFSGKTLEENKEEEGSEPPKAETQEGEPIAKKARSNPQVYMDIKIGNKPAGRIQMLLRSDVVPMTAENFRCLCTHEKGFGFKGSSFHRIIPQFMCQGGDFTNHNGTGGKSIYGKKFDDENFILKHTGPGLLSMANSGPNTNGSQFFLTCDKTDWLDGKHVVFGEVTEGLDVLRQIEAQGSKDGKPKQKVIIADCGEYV

For AAUAAA, the EC50 with MCM4 was determined as 0.05 µM; in the data set with MKRN2, 3.55 µM; with SYMPK, 0.116 µM.
In turn, CUGUCCU yielded a concentration giving a half-maximal response (EC50) in the data set with MRPL21 of 0.151 µM.
Take UAUUUAU: the concentration giving a half-maximal response (EC50) in the data set with PPIE is 0.3 µM.
